Where two headings read alike, the source gives them in different places.

From patent US20170349669A1 (Hoffmann-La Roche, published 2017) come the findings set out here.

In test [1] the target is T1, human VEGFA-121-His (human, UniProt P15692-9 27-147).
T1 construct: Captured on an anti-His antibody surface; P15692 is the canonical VEGF-A entry, and the 121 isoform is one of its splice forms; also called VEFGA-121-His; not shown: His tag
T1 sequence (looked up): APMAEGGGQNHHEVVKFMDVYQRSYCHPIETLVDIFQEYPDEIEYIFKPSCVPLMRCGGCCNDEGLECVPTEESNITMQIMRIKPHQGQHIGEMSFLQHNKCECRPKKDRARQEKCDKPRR
The test can be described thus: SPR Biacore T200, VEGFA-121-His captured via anti-His, antibody as analyte, 1:1 Langmuir. The protocol: (§1) Binding of indicated antibodies to human VEGFA-121 was investigated by surface plasmon resonance using a BIACORE® T200 instrument (GE Healthcare). Around 10000 (RU) of anti His antibody (1 μg/ml anti His antibody; Order Code: 28995056; GE Healthcare Bio-Sciences AB, Sweden) were coupled on a Series S CM5 chip (GE Healthcare BR-1005-30) at pH 5.0 by using an amine coupling kit supplied by the GE Healthcare. HBS-N (10 mM HEPES, 150 mM NaCl pH 7.4, GE Healthcare) was used as running buffer during the immobilization procedure. For the following kinetic characterization, sample and running buffer was PBS-T (10 mM phosphate buffered saline including 0.05% Tween20) at pH 7.4. The flow cell was set to 25° C.—and the sample block set to 12° C.—and primed with running buffer twice prior to kinetic characterization.
(§2) VEFGA-121-His was captured by injecting a 0.5 μg/ml solution for 30 sec at a flow of 5 μl/min. The association was measured by injection of the indicated antibodies in various concentrations in solution for 180 sec at a flow of 30 μl/min starting with 1000 nM in 1:3 serial dilutions. The dissociation phase was monitored for up to 600 sec and triggered by switching from the sample solution to running buffer. The surface was regenerated by 60 sec washing with a Glycine pH 1.5 solution at a flow rate of 30 μl/min. Bulk refractive index differences were corrected by subtracting the response obtained from a anti His antibody surface. Blank injections are also subtracted (=double referencing). For calculation of KD and other kinetic parameters the Langmuir 1:1 model was used.
On the technique in general: SPR reads the build-up and loss of mass on a sensor chip optically.

Test [2] has as its target T1, human VEGFA-121-His. Described as above. The protocol:
as §1, §2
The source holds these as a separate data set.

The target of test [3] is T2, human Ang-2-RBD-Fc (human, UniProt O15123 275-496, limits assumed).
T2 construct: domain: RBD; Used as analyte in solution; The KD is called apparent; not shown: Fc part
T2 sequence (looked up): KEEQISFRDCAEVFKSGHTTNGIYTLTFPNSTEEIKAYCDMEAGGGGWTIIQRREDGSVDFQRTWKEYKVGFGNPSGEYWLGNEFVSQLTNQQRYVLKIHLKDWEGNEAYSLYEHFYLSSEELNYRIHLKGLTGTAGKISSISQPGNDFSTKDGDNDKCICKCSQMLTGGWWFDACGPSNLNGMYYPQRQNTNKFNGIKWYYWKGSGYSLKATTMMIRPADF
The test can be described thus: SPR Biacore T200, apparent KD, antibody captured via anti-human F(ab')2, Ang2-RBD-Fc as analyte. The protocol:
(§3) Binding of indicated antibodies to human Ang-2-RBD-Fc was investigated by surface plasmon resonance using a BIACORE® T200 instrument (GE Healthcare). Around 8000 (RU) of goat anti human F(ab′)₂ (10 μg/ml anti human F(ab)′₂; Order Code: 28958325; GE Healthcare Bio-Sciences AB, Sweden) were coupled on a Series S CM5 chip (GE Healthcare BR-1005-30) at pH 5.0 by using an amine coupling kit supplied by the GE Healthcare. HBS-N (10 mM HEPES, 150 mM NaCl pH 7.4, GE Healthcare) was used as running buffer during the immobilization procedure. For the following kinetic characterization, sample and running buffer was PBS-T (10 mM phosphate buffered saline including 0.05% Tween20) at pH 7.4. The flow cell was set to 25° C.—and the sample block set to 12° C.—and primed with running buffer twice prior to kinetic characterization.
(§4) The bispecific antibody was captured by injecting a 5 nM solution for 25 sec at a flow of 5 μl/min. The association was measured by injection of human Ang2-RBD-Fc in various concentrations in solution for 120 sec at a flow of 30 μl/min starting with 100 nM in 1:3 serial dilutions. The dissociation phase was monitored for up to 180 sec and triggered by switching from the sample solution to running buffer. The surface was regenerated by 60 sec washing with a Glycine pH 2.1 solution at a flow rate of 30 μl/min. Bulk refractive index differences were corrected by subtracting the response obtained from a goat anti human F(ab′)₂ surface. Blank injections are also subtracted (=double referencing). For calculation of apparent KD the Langmuir 1:1 model was used.

The target of test [4] is T2, human Ang-2-RBD-Fc. The description is as above. The protocol:
as §3, §4
This is another data set of the same source.

B1: Ang2VEGF_280 (bispecific antibody, human IgG1, kappa)
heavy 1: not shown
light 1: EVQLVESGGGLVQPGGSLRLSCAASGYTFTNYGMNWVRQAPGKGLEWVGWINTYTGEPTYAADFKRRFTFSLDTSKSTAYLQMNSLRAEDTAVYYCAKYPHYYGSSHWYFDVWGQGTLVTVSSASTKGPSVFPLAPSSKSTSGGTAALGCLVKDYFPEPVTVSWNSGALTSGVHTFPAVLQSSGLYSLSSVVTVPSSSLGTQTYICNVNHKPSNTKVDKKVEPKSC
heavy 2: not shown
light 2: QPGLTQPPSVSVAPGQTARITCGGNNIGSKSVHWYQQKPGQAPVLVVYDDSDRPSGIPERFSGSNSGNTATLTISRVEAGDEADYYCQVWDSSSDHYVFGTGTKVTVLRTVAAPSVFIFPPSDKKLKSGTASVVCLLNNFYPREAKVQWKVDNALQSGNSQESVTEQDSKDSTYSLSSTLTLSKADYEKHKVYACEVTHQGLSSPVTKSFNRGEC
notes: Bivalent CrossMAb-Fab with four different chains; also called Ang2VEGF-0280
Consider B1, for which the Kd in test [1] came out at 7 nM; in test [2] it was 7 nM; in test [3], 3 nM; in test [4], 3 nM.

B2: Ang2VEGF_290 (bispecific antibody, human IgG1, kappa, lambda)
heavy 1: not shown
light 1: EVQLVESGGGLVQPGGSLRLSCAASGYTFTNYGMNWVRQAPGKGLEWVGWINTYTGEPTYAADFKRRFTFSLDTSKSTAYLQMNSLRAEDTAVYYCAKYPHYYGSSHWYFDVWGQGTLVTVSSASTKGPSVFPLAPSSKSTSGGTAALGCLVKDYFPEPVTVSWNSGALTSGVHTFPAVLQSSGLYSLSSVVTVPSSSLGTQTYICNVNHKPSNTKVDKKVEPKSC
heavy 2: not shown
light 2: QPGLTQPPSVSVAPGQTARITCGGNNIGSKSVHWYQQKPGQAPVLVVYDDSDRPSGIPERFSGSNSGNTATLTISRVEAGDEADYYCQVWDSSSDHYVFGTGTKVTVLGQPKAAPSVTLFPPSSEELQANKATLVCLISDFYPGAVTVAWKADSSPVKAGVETTTPSKQSNNKYAASSYLSLTPEQWKSHRSYSCQVTHEGSTVEKTVAPTECS
notes: The Ang2 arm has a lambda light chain; also called Ang2VEGF-0290 (wt); Ang2VEGF-0290
Turning to B2, the Kd was found to be 8 nM in test [1] and 3 nM in test [3].

B3: Ang2VEGF_468 (bispecific antibody, human IgG1, kappa)
heavy 1: not shown
light 1: EVQLVESGGGLVQPGGSLRLSCAASGYTFTNYGMNWVRQAPGKGLEWVGWINTYTGEPTYAADFKRRFTFSLDTSKSTAYLQMNSLRAEDTAVYYCAKYPHYYGSSHWYFDVWGQGTLVTVSSASTKGPSVFPLAPSSKSTSGGTAALGCLVKDYFPEPVTVSWNSGALTSGVHTFPAVLQSSGLYSLSSVVTVPSSSLGTQTYICNVNHKPSNTKVDKKVEPKSC
heavy 2: not shown
light 2: QPGLTQPPSVSVAPGQTARITCGGNNIGSKSVHWYQQKPGQAPVLVVYDDSDRPSGIPERFSGSNSGNTATLTISRVEAGDEADYYCQVWDSSSDHYVFGTGTKVTVLRTVAAPSVFIFPPSDKKLKSGTASVVCLLNNFYPREAKVQWKVDNALQSGNSQESVTEQDSKDSTYSLSSTLTLSKADYEKHKVYACEVTHQGLSSPVTKSFNRGEC
notes: Wild type CH3 domains, no knob-into-hole
As to B3, the Kd in test [2] was determined as 22 nM; in test [4] it was 0.5 nM.

B4: Ang2VEGF_279 (bispecific antibody, human IgG1, kappa, lambda)
heavy 1: not shown
light 1: EVQLVESGGGLVQPGGSLRLSCAASGYTFTNYGMNWVRQAPGKGLEWVGWINTYTGEPTYAADFKRRFTFSLDTSKSTAYLQMNSLRAEDTAVYYCAKYPHYYGSSHWYFDVWGQGTLVTVSSASTKGPSVFPLAPSSKSTSGGTAALGCLVKDYFPEPVTVSWNSGALTSGVHTFPAVLQSSGLYSLSSVVTVPSSSLGTQTYICNVNHKPSNTKVDKKVEPKSC
heavy 2: not shown
light 2: QPGLTQPPSVSVAPGQTARITCGGNNIGSKSVHWYQQKPGQAPVLVVYDDSDRPSGIPERFSGSNSGNTATLTISRVEAGDEADYYCQVWDSSSDHYVFGTGTKVTVLGQPKAAPSVTLFPPSSKKLQANKATLVCLISDFYPGAVTVAWKADSSPVKAGVETTTPSKQSNNKYAASSYLSLTPEQWKSHRSYSCQVTHEGSTVEKTVAPTECS
notes: The Ang2 arm has a lambda light chain; also called Ang2VEGF-0279
Regarding B4, the figures for the Kd in test [1] and in test [3] were 6 nM and 5 nM, respectively.
